Data reported in the DeepSol protein solubility set.

assay: soluble on expression in E. coli; label from the status in PepcDB or PDB records

| Sequence | soluble on expression in E. coli |
| --- | --- |
| MYEGEIAIGPVHSTMLEPHRLRLFIEDEIVKDAELTIGVNHRGVERLMEGLPVEKACILCEKICGICSHIHLWSAARVAEIGCNIEVPERANHIRIIVEELERLHSHTLLFGHAFEILGHETMSMRCFMLREPIMQVFFEISGSRVHYSCPIIGGIRPRCNISETQISHIHDKISQYEEGLTKFIERMLNDPMIISRVKDVGVMDRKTAAKFHAVGPTARGSNVKSDMRKWGWVPEYDPYDFDEILFDSGDVFARLAVRFYECLESVKIIRQALDALKDTSDKRIYNPNYELNEFKPINCYTEAQRGEQYYSYGLDDEGLVRQAKIRTPTATNLGAMEDIVKGYHVSDAELIIASCDPCFTCTDRLMVLKEPFKK | not soluble |
| MYEIPWSKPVNINMLDGRCRTVVGPLDAMHCLQSEWPVRDGAYYGCAIRACNAALKRRKRPEDARAAFIAALREAFLTVVPMQEEGHGPRPLE | not soluble |
| MYGTEQVISGTIIAGPELDPIEGYICVKNGIITEIGEEHTYSANIIAPCFVNAHTHLGDSVCKDPPLGKTSGFRVQKDLDSLVKPPDGLKHRILRDTSYKTLIQYIRKSLLDMIETGTCAFADFREGGVVGLAALNKALEGLNLHSLIFGRPTEPQLPLEVVLAEVRRVLSHSDGLGMSGANDLDMELLQEMTTCTRDRKKLFAIHAGEKNRSDIEKALSLEPDLLIHLTHATKKDLEDVAQTGAPVVVCPRSNFVTGSGMAPIAEMLEAEIRVAAGTDNVMLNSVNMFAEMEFMSKVFSIEDRQVFKICTLNGSFVMGPDSTGSIEKGNKANLMILNGSSNNLAGIKDPISGITKRARPDDILAVLHS | soluble |
| MYIMKQSGWLELICGSMFSGKSEELIRRVKRATYAKQEVRVFKPVIDNRYSEAAVVSHNGTSMTSYAISSAADIWDHISESTDVVAVDEVQFFDQEIVEVLSSLADKGYRVIAAGLDMDFRGEPFGVVPNIMAIAESVTKLQAVCSVCGSPASRTQRLIDGKPASYDDPVILVGAAESYEARCRHHHEVPGKSKKLEHHHHHH | soluble |
| MYIPNAFRESDTHNLQEHMDKTRLAILVTQGDDGLHATHLPLLLRSDEGPYGTLYGHMAKANPQWQQLNADAEAMVIFPGEDAYVSPSFYPSKAEHGKVVPTWNYLAVHAYGQAECFTDPDRLHQLLNDLTDRHESSRAQPWSINDAPADYIAKMLGAIVGFSIPVQRLQGKRKLSQNRSAEDMAGVRDGLGASHLANDQQIARLMSGWRPS | not soluble |
| MYIQILGSAAGGGFPQWNCNCVNCAGFRDGSLRAQARTQSSIALSDDGVNWVLCNASPDIRAQLQGFAPMQPGRALRDTGISAIVLMDSQIDHTTGLLSLREGCPHQVWCTDMVHEDLSTGFPLFEMLKHWNGGLNWNRIELQGSFVIPACPNLRFTPFPLRSAAPPYSPHRFDPHPGDNIGLLVEDTRTGGKLFYAPGLGKVDEALAEKMRDADCLLVDGTMWDDDEMQRRGVGTRTGREMGHLAQNGPGGMLDVLEGFPEQRKVLIHINNTNPILDEDSPERAELVRRNVEVAFDGMSIELLEHHHHHH | soluble |
| MYKLDLPTLMDAFHKVFHVSMLRKCITHQENVISEPPPDLLENMMIVGMLIPNLLGVSSEMVGR | not soluble |
| MYLSHFGFRVQPFSLTPNTEMFLGLVPHYEAIQTILAAVQMGEGVIKVTGEVGTGKTMVCRKLIEQIESQVELVYLPNPVLNGEQLQFAVARELGIDNDDPLRIVSLIQEHLIRVHSTGKKTVLIVDEAQALSPEALETLRLFGNLETEQDKLIQLVLFGQPELDERLSMHELRQFRQRITFSCGLRPLSVDEGVAYINNRLDKAGNGAHIFSIEQKKAIWRSAMGIPRLINQISHKALLAAFNDRCTLLKNHHVYAAMHDTFDARKPKFKTPVFWGWSQPLEHHHHHH | not soluble |
| MYNGYADVDDLHVYVYCGNTPELRLQELVADVKITIQPENEKSCCIKKFLSLKDNKFESIAMSADFGDFDEMVYNYAIDGKCTIEADITIIKEVGDARAKLRDFGEETRDVSDVVINVQNEKFHVSKMFLAAQSSHFKLLFKNSNDSEIALDGIIPEDFQNFLELLYGEPALTEDSVEGILQIAARFDVSTVIRKGEDFLLQKSEFSPEKKLQMSLKYNLENLKSKCLSEVKSVADIRSVLPKDIKEMDHSVMAELLEKSLGLQKT | not soluble |
| MYNNEPGAQSDPTLGYTFQNDFLALSQAFSLPEIDYTDISQREQLAAAIKRWPLLAEFAQPHSLRKP | not soluble |
| MYQVIKMYGDWEPWWFIDGWQDDIIDEQQFSDWQEALDYFNQEWQRMKAIFPSYHSQKNLLATFWEKEDKRWCEDCDEDLQQFHSLLLLKNKDIVPSNNYIPEFEQRNDSPQVAYLCKLNL | not soluble |
| MYQVIKMYGDWEPWWFIDGWQDDIIDEQQFSDWQEALDYFNQEWQRMKAIFPSYHSQKNLLATFWEKEDKRWCEDCDEDLQQFHSLLLLKNKDIVPSNNYIPEFEQRNDSPQVAYLCKLNLLEHHHHHH | soluble |
| MYQVITMYGDNEPWWFFDDWQEDIVQEKTFDNLTDAETYYVEVWQKLSQNYTYVNTKPNYLTAFWNDGEERWCEECDEDLQQYFGLALLENHHAVTFENKAEFTTISNHFGKTKFCKRKVILEHHHHHH | soluble |
| MYSDSRKRSSDDLIDNSDESKKPKESRNLYCTLAAYGCRKGERADMQDTHIMLPKFDLGTEKSFLSRASFFAIFDGHAGPRAAEHCQSQMGKTVKEKLAKFSDFPTLTKSLKQTFTESYKAVDDGFLAIAKQNKPIWKDGTTATTMIILNNVIYVANIGDSRAVVARKKEDGSFAPVCLTVDHDPMSHDERMRIQKAGAVVKDGRINGVIEVSRSIGDLPFKSLGIISTPDLKKLTLTKNDL | not soluble |
| MYSYADRLRAVELYIRLGKRLNTTIRQLGYPTKNALRGWYREYVQHLDLRTQPVARAPKYSEAQRQAALEHFRTHDRCISGTMRALGYPGRGTLTAWVREAFPEARTSMVGRSWHPGYSEEVRQAGVIGLCSGDESAQQVADRLGVSRPTLYSWKDQLLGHEASSSMKRRKANPKVPEREELERKLEALQRDVRQLQLEHDLLKKANELLKKGLGVDLLILSNREKTQLIDALKEVYRLPELLAQLRIARSSYFYHRARMCLADKYAAVRLSLAEIFEANRRCYGYRRLQASLARKSVIVSEKVVQRLMKQEHLAVARPRRRRFGSYLGEISPAPENLINRDFHADAPNVKWLTDITEFQIPAGKVYLSPIIDCFDGMVISWSIGTQPDAGLVNTMLDAAIGTVANGEERPIIHSDRGAHYRWPGWLTRISEARLVRSMSRKGCSQDNAACEGFFGRLKTELFYPRDWKAITIEQFVAEVDAYIRWYNEKRIKISLGSLSPVEYRQSLGLKLAAALEHHHHHH | soluble |
| MYTLLLVDDEERMLDLLELYLAPNGYRCVKRRSGAEAIDYLRRHHADLVLLDVMMPELDGWETCRRIRSFSNVPIMMVTARDETADIVQGLKIGADDYVTKPFDEAELLARIEAVLRRTAGGRSAIRAAGLVWDEEEHTVRYEDKPIALTPKEFAILGLLLKHPNQVFSRGQIIASLWGYLADTEERTVDSHMKNIREKLRKAGFPADEYLQTVWGVGYKWEGRKS | soluble |
| MYVLIGGAGLIGQQLARQVLDQGHTVAVIDQDPQVCKMVRDRLGAMAFEGSAVNTDILLEAGICRADAVAAVLRQDALNLALVTLACHYGVSRIISRISQQDFIEPMRLAGAHHIISTVDLVVSTMVNAIECPQVESMLHFEQGQIEVFKLTLDSQSPVIGRSVAAIAQDRNFPSSSLIIGYQSHPQADLVIPSGNTVLEANATVLLATKPGLVQSLVNFLMPSLFSPLQPAGVLHQLEHHHHHH | soluble |
| NFTHVKGSVGSNSQYVGQVDSSMAFSDKVNGRINLEYRQADSYVDHVDSNDFFIAPTIRVLPADGHTIDIDVEYAHQELVPYRGVPSKNGKPVDLPVSTYFGGTNDYQESDSLRVAVDYEWRLNDQWVWNNRAAFNHIELEQKGTRQGKVTGNEVSQTVNNFGYDPRTTTTLQSELIWETNDNQLMLGADFNQIDIDLTLASDKTLPPQNIYNPVVGPTPDPGFKPFRDNTTTTTGVYVQDVYTWGDLSVIGNVRYDSMELEQQKAGSGKEKLDDDKVSYRAGLVYRINYDTSVYASLARSWQLPYAGIYINPKLAEFFHTDLKEVGAKAYLLDNALMLNAALFQIDQEQPQTNVDGDVIDKIEVRHQGIELEARGQITKQWDISVGYSYLDAEDKATGKKPNDVSDHLFSLWSTYQLDDNWRLGGGVKYVGDRYAGNDEAVALGDYTTVDLMAAYTTGRHKIQANAYNILDEKYILGATNGTSGLNQIGYGAPAEFMLSYGYQF | not soluble |
| NGFDREMRTRILGMVPQATVESYQPIDDWRALAEKVKAHEHVTAVAPFTQMQGMLSANGAVQTVMVDAVDPLEEAKVSIIPDFFKQGSLAELKAGGFGIVIGQLAAQKLGVGIGDKVTLILPEVAVTPAGVFPRMKRFTVVGTFRVGAGELDGGLSLIHLEDAARLQRWKTNQVQGLRLKLDDLFQAPRVAWEIARTLTDNDFYARDWTRSHGNLYQAIRMEKT | not soluble |
| NKGKDITSWVNKALDAIAALFSAKTWKRKPKMKVHYGNNTRQNDYDYNARKKAQSDEIDRILDKLKKSGYESLTTEEKKSLFDASKR | not soluble |
| NKYFENVSKIKYEGPKSNNPYSFKFYNPEEVIDGKTMEEHLRFSIAYWHTFTADGTDQFGKATMQRPWNHYTDPMDIAKARVEAAFEFFDKINAPYFCFHDRDIAPEGDTLRETNKNLDTIVAMIKDYLKTSKTKVLWGTANLFSNPRFVHGASTSCNADVFAYSAAQVKKALEITKELGGENYVFWGGREGYETLLNTDMEFELDNFARFLHMAVDYAKEIGFEGQFLIEPKPKEPTKHQYDFDVANVLAFLRKYDLDKYFKVNIEANHATLAFHDFQHELRYARINGVLGSIDANTGDMLLGWDTDQFPTDIRMTTLAMYEVIKMGGFDKGGLNFDAKVRRASFEPEDLFLGHIAGMDAFAKGFKVAYKLVKDRVFDKFIEERYASYKDGIGADIVSGKADFRSLEKYALERSQIVNKSGRQELLESILNQYLFAE | soluble |
| NLKVKGARDVFEYMKGRIPDETKEHLFVLFLSTKNQILRHETITIGTLTASLIHPREIFKAAIRESAHSIILVHNHPSGDVQPSNADKQVTSILKKAGDLLQIELLDHVIVGNNDWFSFRDHALL | soluble |
| NLNKVKFTEEHAIEVTNWKYEGKYSIYNLPPWEEIKKKNFSLAKEDKRKNFISFINDNKELIGFINLLDEGSSVFFGIGMKPNYCGMGIGKEIISLRLQECRNKYSTKPIVLNVRTWNMRAVKCYESQGFKIVETKVQKTH | not soluble |
| NMRQVLKTDRLVLEPQSMARFDQWFAMERQRDEAGHRDLTEDQAWLRLCARQGMWDAYACGFYYLLDPVSGEMRGEAGFQFRRRGFGPGFDNHPEAAWAVASAHQGRGLAAEAMQALLAHHDRSSGRQRVVALIARSNLPSLRLAERLG | not soluble |
| NNDSWKPWSLPLSGKIIYLDPGHGGPDGGAVGGKLLEKDVTLEVAFRVRDYLQEQGALVIMTRESDTDLAPEGTKGYSRRKAEDLRQRVKLINHSEAELYISIHLNAIPSQKWSGAQSFYYGKYAENEKVAKYIQDELRRNLENTTRKAKRIHGIYLMQNVTKPGALIEVGFLSNPSEATLLGKPKYQDKVASSIYKGILRYFTEKGDPPE | not soluble |
| NNPVSETITRKHVDKDQIRAFGVVAEDNAQLEKGSLVMMGGKYWFVVNPEDSAKLTGILKAGLDKPFQIVEDTPSYARHQALPVKLESPGSQNFSTEGLCLRYDTDKPADIAKLKQLGFEAVKLDNRTIYTRCVSAKGKYYATPQKLNADYHFEQSVPADIYYTVTEEHTDKSKLFANILYTPP | not soluble |
